# Measurements published in publication PMC11813103, “Interaction of cardiac leiomodin with the native cardiac thin filament” (PLOS Biology, 2025).
# B1: Lmod2[387–426] (peptide)
# peptide: WQRGTPGSSPYASPRQSPWSSPKVSKKVHTGRSRPPSPVA
# notes: also called C-terminal Lmod2 fragment between the LRR domain and the polyP region; source: synthetic peptide (Tufts University Core Facility)
# B2: Lmod2[518–543] (peptide)
# peptide: STPQRSVHENLMEAIRGSSIRQLRRV
# notes: also called Lmod2 fragment containing the WH2 domain; source: synthetic peptide (Tufts University Core Facility)
# B3: Lmod2[451–492] (peptide)
# peptide: PLPEKKLITRNIAEVIKQQESAQRALQNGQRKKKGKKVKKQP
# notes: also called C-terminal Lmod2 fragment after the polyP region; source: synthetic peptide (Tufts University Core Facility)
# Target: G-actin (UniProt P68135 1-377)
# Assay: native gel or EMSA; 9% polyacrylamide, 10% glycerol, no SDS; fragments mixed with 5 μM G-actin at 1:2, 1:1, 1.5:1 and 2:1 molar ratios (Lmod2[518–543] at 2:1 only); densitometry of the actin band
# Settings: both partners purified
row,percent of the actin in complex at a 2:1 fragment to actin molar ratio [%],Binder
1,~70,B1
2,~90,B2
3,~60,B3
